Measurements as given in paper PMC11055898 (2024).

Key:
mouse CD64 [1] = assay: SPR
mouse CD16-2 [2] = assay: SPR
mouse CD16 [3] = assay: SPR
mouse CD64 [4] = assay: SPR; remark: listed apart in the source
mouse CD16-2 [5] = assay: SPR; remark: listed apart in the source
mouse CD16 [6] = assay: SPR; remark: listed apart in the source
human CD64 (FcgRI) [7] = target: T1, human CD64 (FcgRI) (human, UniProt P12314 16-374, biotin (biotinylated Fc receptors)); assay: SPR
human FcRn [8] = assay: SPR; pH 6.2
human CD64 (FcgRI) [9] = target: T1, human CD64 (FcgRI); assay: SPR; remark: listed apart in the source
human FcRn [10] = assay: SPR; pH 6.2; remark: listed apart in the source

T1 sequence (P12314 16-374): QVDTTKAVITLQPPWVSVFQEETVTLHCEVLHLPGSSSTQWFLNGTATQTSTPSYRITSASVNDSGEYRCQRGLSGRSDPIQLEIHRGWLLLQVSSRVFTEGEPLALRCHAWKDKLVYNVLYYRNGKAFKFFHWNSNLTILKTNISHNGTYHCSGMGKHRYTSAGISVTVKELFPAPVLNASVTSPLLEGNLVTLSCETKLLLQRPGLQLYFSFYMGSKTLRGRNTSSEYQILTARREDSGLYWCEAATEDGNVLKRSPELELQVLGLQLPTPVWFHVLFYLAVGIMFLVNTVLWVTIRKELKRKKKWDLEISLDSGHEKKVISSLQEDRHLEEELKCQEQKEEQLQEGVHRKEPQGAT

B1: Ab11 IgGh47 (antibody)
chain 1: QVTLKESGPVLVKPTETLTLTCTVSGFSLSNAKMGVSWIRQPPGKALEWLAHIFSNDEKSYSTSLKSSLTISKDTSKSQVVLTMTNMDPVDTATYYCARLLWFGGNYFDYWGQGTLVTVSS
chain 2: not shown
koff (mouse CD64 [1]): 0.00083 s⁻¹
koff (mouse CD16-2 [2]): 0.0018 s⁻¹
koff (mouse CD16 [3]): 0.00074 s⁻¹
Kd (mouse CD64 [4]): 7 nM
Kd (mouse CD16-2 [5]): 24 nM
Kd (mouse CD16 [6]): 15 nM
Kd (human CD64 (FcgRI) [7]): 2.1 nM
Kd (human FcRn [8]): 7.1 nM
koff (human CD64 (FcgRI) [9]): 0.00017 s⁻¹
koff (human FcRn [10]): 0.00048 s⁻¹
